Data published in publication PMC6802635.

Target: NRLLLTG peptide
Assay: ELISA; 150 ng NRLLLTG peptide coated on the plate in 0.05 M sodium carbonate pH 9.6; HSP70 protein added in a dose-dependent manner; detected with anti-HSP70 antibody, TMB, 450 nm

fold affinity relative to WT HSP70: 1.5 fold
Substance: purified HSP70 S385D/S400D double phospho-mimetic mutant (from UniProt P0DMV8 1-641) (natural protein)
